Measurements published in paper doi:10.1101/2022.03.21.485092.

Target: hnRNP A1 spin-labelled at 231 (Homo sapiens, UniProt P09651-2 1-320, M1G;C43S;C175A;S231C)
Assay: CW EPR

Binder: CCAGCAUUAUGAAAAUGA (ssRNA) [RNAga (3' AG motif mutated)]
- binding result: binds
